What was measured:
[1] = substrate: CC(C)=CCC/C(C)=C/CC/C(C)=C/CO[P@@](=O)(O)OP(=O)(O)O; experiment: cells, lysate or membranes; conditions: Mg2+ ([…] magnesium chloride in assay)
[2] = substrate: O=C(O)Cc1cc(O)ccc1O; experiment: cells, lysate or membranes; conditions: Mg2+ ([…] magnesium chloride in assay)

B1: homogentisate solanesyltransferase (CrHST) (Chlamydomonas reinhardtii) (protein)
chain: SAAVPAPLPNGGNDESFAQKLANFPNAFWKFLRPHTIRGTILGTTAVTAKVLMENPGCIDWALLPKALLGLVALLCGNGYIVGINQIYDVDIDVVNKPFLPVASGELSPALAWGLCLSLAAAGAGIVAANFGNLITSLYTFGLFLGTVYSVPPLRLKQYAVPAFMIIATVRGFLLNFGVYSATRAALGLPFEWSPAVSFITVFVTLFATVIAITKDLPDVEGDQANNISTFATRMGVRNVALLAIGLLMANYLGAIALALTYSTAFNVPLMAGAHAILAATLALRTLKLHAASYSREAVASFYRWIWNLFYAEYALLPFL
B1 gave a Km [1] of 22.76 ± 1.70 µM and a Km [2] of 48.54 ± 3.89 µM.
